The text below walks through data of publication PMC8675206.

One data set addresses DNA-PKcs;Ku70;Ku80 (Homo sapiens (HeLa cells);Homo sapiens …, UniProt P78527;P12956;P13010 1-4128;2-609;2-732, ||). As to the kind of experiment: pull-down.
For a further data set, the target named is DNA-PKcs (Homo sapiens (HeLa cells), UniProt P78527 1-4128). As to the kind of experiment: HX-MS on bead-captured DNA.
DNA-PKcs, sequence (P78527 whole entry): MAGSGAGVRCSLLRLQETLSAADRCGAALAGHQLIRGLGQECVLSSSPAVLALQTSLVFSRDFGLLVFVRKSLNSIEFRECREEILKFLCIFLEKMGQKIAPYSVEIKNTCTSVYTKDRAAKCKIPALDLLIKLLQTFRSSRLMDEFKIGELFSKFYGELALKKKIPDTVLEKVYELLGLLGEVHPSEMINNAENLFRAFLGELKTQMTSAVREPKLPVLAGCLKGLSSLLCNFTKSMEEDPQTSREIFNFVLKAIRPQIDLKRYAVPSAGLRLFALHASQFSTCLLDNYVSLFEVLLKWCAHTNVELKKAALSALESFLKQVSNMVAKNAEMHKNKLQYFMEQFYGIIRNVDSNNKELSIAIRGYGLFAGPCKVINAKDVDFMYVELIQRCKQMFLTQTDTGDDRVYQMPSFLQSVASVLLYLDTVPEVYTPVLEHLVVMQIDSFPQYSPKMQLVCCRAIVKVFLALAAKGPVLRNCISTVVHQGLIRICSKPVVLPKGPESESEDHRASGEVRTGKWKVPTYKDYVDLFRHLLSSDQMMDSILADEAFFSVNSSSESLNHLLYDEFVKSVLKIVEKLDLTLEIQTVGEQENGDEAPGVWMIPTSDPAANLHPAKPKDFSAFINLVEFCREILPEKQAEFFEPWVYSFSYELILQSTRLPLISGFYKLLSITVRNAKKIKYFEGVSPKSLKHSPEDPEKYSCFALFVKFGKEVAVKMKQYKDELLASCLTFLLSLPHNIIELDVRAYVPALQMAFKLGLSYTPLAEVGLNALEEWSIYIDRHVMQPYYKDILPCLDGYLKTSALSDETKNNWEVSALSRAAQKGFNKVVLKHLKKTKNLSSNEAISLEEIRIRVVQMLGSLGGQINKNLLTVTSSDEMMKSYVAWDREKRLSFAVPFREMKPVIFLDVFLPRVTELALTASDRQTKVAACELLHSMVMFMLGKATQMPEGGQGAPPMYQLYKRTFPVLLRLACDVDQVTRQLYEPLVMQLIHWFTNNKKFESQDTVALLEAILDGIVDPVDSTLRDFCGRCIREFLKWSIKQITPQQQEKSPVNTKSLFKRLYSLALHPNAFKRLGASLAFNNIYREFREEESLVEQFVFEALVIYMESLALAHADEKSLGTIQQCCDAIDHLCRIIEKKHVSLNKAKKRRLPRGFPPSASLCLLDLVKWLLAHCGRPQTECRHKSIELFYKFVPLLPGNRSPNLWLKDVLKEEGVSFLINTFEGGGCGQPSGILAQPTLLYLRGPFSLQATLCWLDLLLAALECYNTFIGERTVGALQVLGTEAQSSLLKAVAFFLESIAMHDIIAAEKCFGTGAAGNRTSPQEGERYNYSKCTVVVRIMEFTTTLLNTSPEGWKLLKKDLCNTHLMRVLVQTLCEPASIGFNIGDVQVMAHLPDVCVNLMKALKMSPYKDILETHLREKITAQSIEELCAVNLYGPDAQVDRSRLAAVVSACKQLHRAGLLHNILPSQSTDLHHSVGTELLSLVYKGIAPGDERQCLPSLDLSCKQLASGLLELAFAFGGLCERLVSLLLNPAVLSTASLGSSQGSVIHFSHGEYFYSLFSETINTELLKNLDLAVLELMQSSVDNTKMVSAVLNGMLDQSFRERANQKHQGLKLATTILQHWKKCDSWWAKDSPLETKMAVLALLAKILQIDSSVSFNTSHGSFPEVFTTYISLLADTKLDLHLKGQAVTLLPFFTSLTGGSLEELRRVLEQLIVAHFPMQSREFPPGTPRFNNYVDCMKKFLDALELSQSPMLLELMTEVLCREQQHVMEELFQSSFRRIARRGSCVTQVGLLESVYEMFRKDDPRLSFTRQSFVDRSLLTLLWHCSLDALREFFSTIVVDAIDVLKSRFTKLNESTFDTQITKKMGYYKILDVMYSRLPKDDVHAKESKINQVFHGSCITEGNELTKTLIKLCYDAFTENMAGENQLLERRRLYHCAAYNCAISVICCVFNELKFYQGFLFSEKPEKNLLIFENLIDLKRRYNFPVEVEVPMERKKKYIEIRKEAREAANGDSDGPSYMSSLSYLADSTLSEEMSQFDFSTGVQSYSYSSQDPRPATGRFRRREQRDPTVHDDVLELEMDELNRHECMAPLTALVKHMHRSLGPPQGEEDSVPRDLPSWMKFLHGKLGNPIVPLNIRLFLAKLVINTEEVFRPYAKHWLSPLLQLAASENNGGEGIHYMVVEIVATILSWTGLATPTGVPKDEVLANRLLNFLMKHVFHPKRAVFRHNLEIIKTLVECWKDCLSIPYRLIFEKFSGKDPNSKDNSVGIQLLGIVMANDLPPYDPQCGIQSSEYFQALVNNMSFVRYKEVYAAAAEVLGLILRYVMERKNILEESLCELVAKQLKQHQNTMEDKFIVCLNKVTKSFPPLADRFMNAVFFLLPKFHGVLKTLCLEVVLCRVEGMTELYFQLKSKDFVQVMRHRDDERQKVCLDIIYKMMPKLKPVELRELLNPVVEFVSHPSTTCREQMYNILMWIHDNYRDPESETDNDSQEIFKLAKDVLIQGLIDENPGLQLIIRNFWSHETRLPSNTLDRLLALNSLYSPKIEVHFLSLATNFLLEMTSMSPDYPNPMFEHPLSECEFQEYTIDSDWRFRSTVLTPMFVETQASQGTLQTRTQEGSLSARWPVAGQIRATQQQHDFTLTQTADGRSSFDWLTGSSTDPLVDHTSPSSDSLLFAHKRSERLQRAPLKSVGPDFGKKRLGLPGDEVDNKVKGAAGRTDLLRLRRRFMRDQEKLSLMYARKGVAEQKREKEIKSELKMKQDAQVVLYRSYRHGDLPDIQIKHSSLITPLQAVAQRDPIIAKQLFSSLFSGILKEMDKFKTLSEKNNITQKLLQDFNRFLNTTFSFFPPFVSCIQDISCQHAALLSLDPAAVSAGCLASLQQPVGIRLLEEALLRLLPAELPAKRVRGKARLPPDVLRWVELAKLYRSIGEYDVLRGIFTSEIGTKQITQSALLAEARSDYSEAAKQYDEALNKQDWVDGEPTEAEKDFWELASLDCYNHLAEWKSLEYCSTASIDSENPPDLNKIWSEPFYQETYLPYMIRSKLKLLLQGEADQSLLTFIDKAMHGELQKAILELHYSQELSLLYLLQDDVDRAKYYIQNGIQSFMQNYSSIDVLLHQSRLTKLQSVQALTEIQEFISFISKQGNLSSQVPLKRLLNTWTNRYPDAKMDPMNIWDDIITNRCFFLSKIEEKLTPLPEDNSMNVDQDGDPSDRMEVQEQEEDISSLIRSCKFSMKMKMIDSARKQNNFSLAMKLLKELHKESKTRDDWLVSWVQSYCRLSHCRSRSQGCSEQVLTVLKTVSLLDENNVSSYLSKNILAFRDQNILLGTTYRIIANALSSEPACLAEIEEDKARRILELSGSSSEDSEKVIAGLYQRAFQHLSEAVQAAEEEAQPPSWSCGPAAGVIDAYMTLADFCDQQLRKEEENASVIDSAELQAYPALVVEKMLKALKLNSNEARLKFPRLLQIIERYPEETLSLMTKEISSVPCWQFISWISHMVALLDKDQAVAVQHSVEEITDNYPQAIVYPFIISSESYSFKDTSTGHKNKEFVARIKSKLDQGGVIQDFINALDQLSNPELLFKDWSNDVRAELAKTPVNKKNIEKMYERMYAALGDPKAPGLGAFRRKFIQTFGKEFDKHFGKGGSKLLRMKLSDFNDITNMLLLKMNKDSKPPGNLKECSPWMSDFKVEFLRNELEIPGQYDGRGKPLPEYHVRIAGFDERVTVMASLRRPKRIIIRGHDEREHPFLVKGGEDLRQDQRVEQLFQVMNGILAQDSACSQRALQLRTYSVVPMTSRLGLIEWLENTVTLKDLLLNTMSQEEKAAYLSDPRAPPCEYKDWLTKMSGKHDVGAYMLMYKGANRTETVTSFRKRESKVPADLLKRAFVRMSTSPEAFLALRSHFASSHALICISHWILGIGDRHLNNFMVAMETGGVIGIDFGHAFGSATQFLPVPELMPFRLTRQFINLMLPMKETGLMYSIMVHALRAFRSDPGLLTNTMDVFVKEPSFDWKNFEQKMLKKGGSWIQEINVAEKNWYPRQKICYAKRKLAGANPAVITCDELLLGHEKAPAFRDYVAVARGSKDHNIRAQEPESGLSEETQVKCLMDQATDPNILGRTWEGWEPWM

B1: 100bp blunt (dsDNA)
DNA 1: GCACAATCTTCTCGCGCAACGCGTCAGTGGGCTGATCATTAACTATCCGCTGGATGACCAGGATGCCATTGCTGTGGAAGCTGCCTGCACTAATGTTCCG
DNA 2: CGGAACATTAGTGCAGGCAGCTTCCACAGCAATGGCATCCTGGTCATCCAGCGGATAGTTAATGATCAGCCCACTGACGCGTTGCGCGAGAAGATTGTGC
For B1, the binding result with DNA-PKcs;Ku70;Ku80 is on record as “binds”.

B2: 25bp blunt (dsDNA)
DNA 1: AAGCTTGCATGCCTGCAGGTCGACC
DNA 2: GGTCGACCTGCAGGCATGCAAGCTT
Turning to B2, the binding result with DNA-PKcs is “binds”.
